Test results reported in patent US20110171222A1 (Hoffmann-La Roche, published 2011).

Key:
[1] = target: T1, Soluble human HER3 extracellular domain fused to Streptavidin Binding Protein (SBP) (human, UniProt P21860 20-643); assay: ratio of the concentration by HER3-ECD ELISA to the concentration by IgG ELISA
T1 construct: It was used as HEK293 supernatant captured on streptavidin plates; also called SBP-HER3

[2] = target: T1, Soluble human HER3 extracellular domain …; assay: ELISA, SBP-HER3 ECD captured on streptavidin plate, anti-human IgG-HRP detection
Procedure: Soluble human HER3 extracellular domain fused to Streptavidin Binding Protein (SBP) was captured on a streptavidin plate. […] For the standard coating, SBP-HER3 containing HEK293 supernatant was diluted (between 1:15 and 1:40) and incubated overnight at 2-80 C (25 μl per well). Intensive washing of the microtiter plate was necessary to remove remaining unbound SBP-HER3.
Antibodies were tested either undiluted or using a 12-step-dilution. 12.5 μl per well of each sample was incubated for 90 min at room temperature.

human HER3 ECD = target: T2, human HER3 ECD (human, UniProt P21860 20-643); assay: SPR (Biacore T100), antibody captured by anti-Fc gamma, HER3 ECD as analyte, 25 °C, 1:1 Langmuir model
T2 construct: also called hHER3-ECD; hu-HER3-ECD
Procedure: After conjugation, anti-HER3 antibodies were injected at 25° C. at a flow rate of 5 μL/min, followed by a dilution series (0 nM to 1000 nM) of human HER3 ECD at 30 μL/min. As running buffer for the binding experiment PBS/0.1% BSA was used. The chip was then regenerated with a 60 s pulse of 10 mM glycine-HCl, pH 2.0 solution.
Calculation of thermodynamic parameters (KD, binding constant to HER3) were calculated using a Langmuir 1:1 binding model.

[3] = target: HER3 on MCF7, FaDu and Mel-Juso tumor cells (human) (UniProt P21860); assay: cell-based or functional assay

| activity (ratio binding to hu_HER3-ECD/IgG) [1] | hu_HER3-ECD-ELISA c [2] [µg/mL] | Kd (human HER3 ECD) [nM] | pHER3 % inhibition [0.1 µg/ml], MCF7 cells [3] [%] | pHER3 % inhibition [1.0 µg/ml], MCF7 cells [3] [%] | Binder |
| --- | --- | --- | --- | --- | --- |
| 0.74 | 583 | 2 |  |  | Mab 205.10.1 (antibody, V domains shown, Humanized antibody; Only the variable domains are tied to it; The assays detected it with anti-human IgG or captured it with anti-Fc gamma) VH: QVQLVQSGAEVKKPGASVKVSCKASGYTFRSSYISWVRQAPGQGLEWMGWIYAGTGSPSYNQKLQGRVTMTTDTSTSTAYMELRSLRSDDTAVYYCARHRDYYSNSLTYWGQGTLVTVSS VL: DIVMTQSPDSLAVSLGERATINCKSSQSLLNSGNQKNYLTWYQQKPGQPPKLLIYWASTRESGVPDRFSGSGSGTDFTLTISSLQAEDVAVYYCQSDYSYPYTFGQGTKLEIK |
| 0.83 | 505 | 2 |  |  | Mab 205.10.3 (antibody, human IgG1, V domains shown, Humanized antibody; Only the variable domains are tied to it) VH: QVQLVQSGAEVKKPGASVKVSCKASGYTFRSSYISWVRQAPGQGLEWMGWIYAGTGSPSYNQKLQGRVTMTTDTSTSTAYMELRSLRSDDTAVYYCARHRDYYSNSLTYWGQGTLVTVSS VL: DIVMTQSPDSLAVSLGERATINCKSSQSLLNSGNQKNYLTWYQQKPGQPPKLLIYWASTRESGVPDRFSGSGSGTDFTLTISSLQAEDVSIYYCQSDYSYPYTFGQGTKLEIK |
|  |  |  | 54 | 51 | U1-53 (antibody, from another filing, V domains shown) VH: EVQLVESGGGLVQPGGSLRLSCAASGFTFSIYSMNWVRQAPGKGLEWVSYISSSSSTIYYADSVKGRFTISRDNAKNSLYLQMNSLRDEDTAVYYCARDRGDFDAFDIWGQGTMVTVSS VL: DIQMTQSPSSLSASVGDRVTITCQASQDITNYLNWYQQKPGKAPKLLIYDASNLETGVPSRFSGSGSGTDFTFTISSLQPEDIATYNCQQCENFPITFGQGTRLEIK |
